According to paper PMC7966745, “Elucidation of transient protein-protein interactions within carrier protein-dependent biosynthesis” (Communications Biology, 2021):

Molecular target: T1, octanoyl-AcpP (C8-AcpP), E. coli acyl carrier protein (E. coli, UniProt P0A6A8 2-78, octanoyl pantethenamide probe loaded (stable C8 acyl analog); uniformly 15N labeled and perdeuterated)
T1 construct: acyl carrier protein AcpP, E. coli; PDB 2FAD is heptanoyl-AcpP, used for docking only; also called 15N-C8-AcpP; source: E. coli BL21 (DE3), M9 minimal media with 15N NH4Cl and D2O, purified; made apo with P. aeruginosa ACPH, then loaded with CoaA, CoaD, CoaE and Sfp
Assay: NMR titration; 1H-15N HSQC of 15N, perdeuterated C8-AcpP titrated with unlabeled partner, at least five points; 37 °C; 10 mM potassium phosphate pH 7.4, 0.5 mM TCEP, 0.1% NaN3; TITAN 2D lineshape analysis, flexible stoichiometry model
Conditions: both partners purified

T1 sequence (P0A6A8 2-78): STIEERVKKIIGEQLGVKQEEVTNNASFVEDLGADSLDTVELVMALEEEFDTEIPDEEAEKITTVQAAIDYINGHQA

B1: FabF, E. coli elongating ketosynthase (enzyme)
chain: SKRRVVVTGLGMLSPVGNTVESTWKALLAGQSGISLIDHFDTSAYATKFAGLVKDFNCEDIISRKEQRKMDAFIQYGIVAGVQAMQDSGLEITEENATRIGAAIGSGIGGLGLIEENHTSLMNGGPRKISPFFVPSTIVNMVAGHLTIMYGLRGPSISIATACTSGVHNIGHAARIIAYGDADVMVAGGAEKASTPLGVGGFGAARALSTRNDNPQAASRPWDKERDGFVLGDGAGMLVLEEYEHAKKRGAKIYAELVGFGMSSDAYHMTSPPENGAGAALAMANALRDAGIEASQIGYVNAHGTSTPAGDKAEAQAVKTIFGEAASRVLVSSTKSMTGHLLGAAGAVESIYSILALRDQAVPPTINLDNPDEGCDLDFVPHEARQVSGMEYTLCNSFGFGGTNGSLIFKKI
notes: ketosynthase FabF (3-oxoacyl-ACP synthase 2), E. coli; also called KS; source: E. coli BL21 (DE3), purified (Ni-IMAC, Superdex 75)
With B1 the “stoichiometry N” value was ~1.
